Data set [1] concerns the molecule itself. In words: SEC; co-expressed and co-purified DOCK2–ELMO1 complex, wild type and dimer mutant; gel filtration buffer 50 mM Tris HCl (pH 8.0), 200 mM NaCl, 2 mM DTT; Superose 6 / Superdex 200 5/150GL. A general note: SEC sorts molecules by how far they enter the pores of the column.
For another data set, the target named is T1, RHOG D38A mutant (human, UniProt P84095 1-179, D38A).
T1 construct: RHOG, human, GeneID 391, amino acids 1–179 with D38A; also called RHOG Asp38 to Ala mutant; source: E. coli BL21 (DE3) CodonPlus, purified (nickel-nitrilotriacetic acid, thrombin cleavage, Superdex 75)
T1 sequence (P84095 1-179 D38A): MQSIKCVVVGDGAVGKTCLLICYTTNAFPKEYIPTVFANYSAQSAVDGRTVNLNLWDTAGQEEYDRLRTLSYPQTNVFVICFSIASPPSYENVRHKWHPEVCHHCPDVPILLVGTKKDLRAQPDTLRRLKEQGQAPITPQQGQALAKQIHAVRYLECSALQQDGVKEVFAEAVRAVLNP
Kind of data set: ITC; ELMO2^RBD injected into the cell containing GMPPNP-loaded (activated) RHOG; 20 mM Tris-HCl (pH 7.5), 100 mM NaCl, 1 mM DTT; 25 °C. The conditions noted are these: both partners purified.

The target of data set [2] is T2, human RHOG (amino acids 1–179) (human, UniProt P84095 1-179).
T2 construct: RHOG, human, GeneID 391, amino acids 1–179; Loaded with GMPPNP (or GDP) as told for each assay; also called wild-type RHOG; source: E. coli BL21 (DE3) CodonPlus, purified (nickel-nitrilotriacetic acid, thrombin cleavage, Superdex 75)
T2 sequence (P84095 1-179): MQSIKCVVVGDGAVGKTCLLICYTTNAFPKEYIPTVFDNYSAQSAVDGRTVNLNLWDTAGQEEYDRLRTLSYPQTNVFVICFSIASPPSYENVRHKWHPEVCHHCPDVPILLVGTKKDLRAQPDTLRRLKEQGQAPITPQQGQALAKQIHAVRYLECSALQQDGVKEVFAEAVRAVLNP
The description is as above. The conditions noted are these: both partners purified.

B1: human DOCK2 (dedicator of cytokinesis 2) (natural protein)
chain: not shown
notes: DOCK2, human; Tag removed with TEV protease; samples for cryo-EM were cross-linked with glutaraldehyde; also called DOCK2^WT; source: High Five insect cells (baculovirus), co-expressed with ELMO1, purified (Strep-Tactin, Resource Q, Superose 6); not shown: double StrepII, C-terminal, cleaved
In the case of B1, the “stoichiometry N” value in data set [1] turned out to be 2.

B2: N-terminal RBD domain of murine ELMO2 (amino acids 1–80) (domain or fragment, UniProt Q8BHL5 1-80, looked up)
chain: MPPPSDIVKVAIEWPGANAQLLEIDQKRPLASIIKEVCDGWSLPNPEYYTLRYADGPQLYVTEQTRNDIKNGTILQLAVS
notes: also called ELMO2^RBD; wild-type ELMO2^RBD; source: E. coli BL21 (DE3) CodonPlus, purified (GSH resin, thrombin cleavage on the resin, Superdex 75); not shown: GST, N-terminal, cleaved
With B2, the results for the equilibrium dissociation constant (Kd) (with RHOG D38A mutant; in data set [2]) were 9 µM and 7.8 µM, respectively.

For orientation: stoichiometry N means the number of molecules, sites or subunits per partner or assembly. The term Kd denotes the equilibrium constant for the complex coming apart. Read a high Kd as a looser complex.
